Experimental data as given in the DeepSol protein solubility set.

Test: soluble on expression in E. coli; label from the status in PepcDB or PDB records

Sequence	soluble on expression in E. coli
LAKGLEDVYIDQTNICYIDGKEGKLYYRGYSVEELAELSTFEEVVYLLWWGKLPSLSELENFKKELAKSRGLPKEVIEIMEALPKNTHPMGALRTIISYLGNIDDSGDIPVTPEEVYRIGISVTAKIPTIVANWYRIKNGLEYVPPKEKLSHAANFLYMLHGEEPPKEWEKAMDVALILYAEHEINASTLAVMTVGSTLSDYYSAILAGIGALKGPIHGGAVEEAIKQFMEIGSPEKVEEWFFKALQQKRKIMGAGHRVYKTYDPRARIFKKYASKLGDKKLFEIAERLERLVEEYLSKKGISINVDYWSGLVFYGMKIPIELYTTIFAMGRIAGWTAHLAEYVSHNRIIRPRLQYVGEIGKKYLPIELRR	soluble
MPGFAIGQTAYVVKTDSYRLLWDCITYLDETTIAKIKELGGLDAIALSHPHYYSTQVEWAETFDVPIYIHEDDKEWVMRPSSRIIYWSGESLQLADGITIHRLGGHFSGGSVLHWEEGNDGKGILLTGDIIQVVADERWVSFMYSYPNLIPLPARKVEEMVNRVKPLQFNRLYNAFHRVVKLEHHHHHH	soluble
MSLDYSTSLRFQSQLERSMTEALNALGYYHPSIDFTVSEDNQRLRAAVTLGEVTRLSEVDIVIRGEAEGDRDFQRLIRRSGLRVDAPLNHSLYDNLKSGIRNLALQKGYFNGDFQASRLEVIPELNQARVILHFDSGIRYLFGATTVEGSQIDENRVMSLRPFKQGEPYLVSQVGEFNQNLSNTDWFSSVFVEPDLSQLDEGRELPIKVTLAPQARNQLETGLGYSTDVGVRGSLKWKKPWVNSQGHSFDSSFSLSIPEQTITAGYKIPLEDALNEYYRIQYGMKHLDKRDTESLESNLSLERHWQLDGGWHRTVFIRYLLENYRQGLQDDNSQFLLPGMTYTRTRTRSNSGLLTWGDKQTITLEYGDPALLSETRVLRLQTGSSWLRTYARNHRALVRVDGGANLVDEFDQLSPSLRFFAGGDNNLRGYGYKSISPQDASGALTGAKYIATSSIEYQYRLTGNWWAAMFMDVGDAFNDNPEWKKGVGTGIRWISPVGPIRLDFAWGLDAAPGDEFKIHFTLGPELEGHHHHHH	not soluble
SLSEKVIDMYKSENCGCCSLWGKAMEKDGFEVRTHIMNDQALSALKEKHAIPAGLRSCHTAVAGNLIIEGHVPATTIHKAMQSGSGIYGLATPGMPAGSPGMEMGARKEAYDVIAFSPDGSKKVFQRIE	soluble
MGSDKIHHHHHHMIILFGNQKGGCGKTTNCIQFANYLVEKGKEVLVLDLDFQRSLSDRRKEDIATYDNEPKYEVIQTDISNVAKIISDFTKVEQGNLLIDLPGKIDDDALGTILKAADIIICPFKYDKFTMDSTGFFIQVLQYLNVKAKIFFLPNNMRAAVRYETKEQVVDILKQVGFVTDEIPASVAMERINTLTISNECIDKVKNAYDYIIQEGAIK	not soluble
MAHHHHHHMPYIASIDQGTTSSRCIIFDEKFTILSAHQLFHKQITPRPGWLEHDPEEIYSNCCLCLAEALKKLRSKDPKFEKVSAIGITNQRETGVAWDRKTGKPLCNAIVWSDARTYEVSNRIAKECGGGDRNFAANITGLPVSTYFTAFKFRWMLENVPAVAAARKSGSLLLGTIETWLLWKLSEGKVFLTDVSNASRTFLMNLRTQQWCDKLCQELDIPLAALPEIRSNSERYCDVVANDHGIRDALGVPTPVTGCIGDQQSALFGHIGLHKGDAKNTYGTGCFMLMNVGTEPQFSKHGLLGTIAYKLGTEPTKFALEGSVAGAGATVEWMRSNLGFFDHPMQMESIARKVGGTDGVVFVPAFGGLLAPYWDPTARGTLVGMTYKTNKSHIIRAALEAISMQVNAVMLAMKEDSGVEMNCLRVDGGLTRSRLLMEMQADILGVNLYVPHLTETTALGAALCAGLAVGVWKSVEEMQKTAKEHLSGETVNPITTDEQVRKARLEAWNAAVKLSRWAKL	soluble
MGSDKIHHHHHHMHHDLVDVLIIEDESELARLHAELVQKHPRLRLAGMAASLAQARQLLHATPPQLVLLDNYLPDGKGVTLMTDPALATSQCSVIFITAASDMETCSQAIRNGAFDYILKPVSWKRLSQSLERFIQFYDQQREWKIVDQQNVDSLYQLQAKNYRVDSGSKGIEEKTLALVQGLFSDREAHCFSVDEVVSAAGLSKTTARRYLEHGVETGFLEVEMLYGKIGHPRRLYRRAKVKS	not soluble
